Source: US7378098
Where no end group is shown, it is not given here.

Biological target: T1, CXC chemokine receptor 4 (CXCR4) (UniProt P61073 1-352, limits assumed)
T1 construct: whole, on cells; Both are human cell lines; also called CXCR4 receptor; SDF-1 receptor
Experiment: competition with 4 nM 125I-SDF-1 on CEM cells (FIG. 2C)
Protocol: The results are expressed as percentages of the maximal specific binding that was determined without competing ligand, and are the mean of three independent experiments.

T1 sequence (P61073 whole entry): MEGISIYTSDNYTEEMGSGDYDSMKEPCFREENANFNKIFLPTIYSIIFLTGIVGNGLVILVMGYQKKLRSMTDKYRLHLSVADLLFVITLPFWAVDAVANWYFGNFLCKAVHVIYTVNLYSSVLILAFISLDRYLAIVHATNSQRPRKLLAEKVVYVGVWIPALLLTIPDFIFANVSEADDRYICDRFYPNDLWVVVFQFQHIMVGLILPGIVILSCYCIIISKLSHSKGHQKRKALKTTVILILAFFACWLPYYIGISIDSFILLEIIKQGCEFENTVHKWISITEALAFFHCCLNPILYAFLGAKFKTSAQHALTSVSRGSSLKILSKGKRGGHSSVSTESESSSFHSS

binding result: binds
B1: SDF-1(1-8)2-lysine bridge dimer (CTCE9904) (peptide)
peptide 1: KPVSLSYRK-NH2
peptide 2: KPVSLSYR
modifications: also: dimer: two KPVSLSYR chains bridged through alpha and epsilon amino groups of one lysinamide, lactam at chain A 9 at chain B 8 to a chain's C-terminus
notes: It is not known whether the bridging lysine is part of either listing entry; also called SDF-1 (1-8)2-lysine dimer
